Results on 21 sequences are retold here after the DeepSol protein solubility set.

The data set is described as follows: soluble on expression in E. coli; label from the status in PepcDB or PDB records.
For the sequence “MVSNPVHGLPFLPGTSFKDSTKTAFHRSQTLSYRNGYAIVRRPTVGIGGDRLQFNQLSQAELDELASKAPVLTYGQPKQAPPADFIPAHVAFDKKVLKFDAYFQEDVPMSTEEQYRIRQVNIYYYLEDDSMSVIEPVVENSGILQGKLIKRQRLAKNDRGDHYHWKDLNRGINITIYGKTFRVVDCDQFTQVFLESQGIELNPPEKMALDPYTELRKQPLRKYVTPSDFDQLKQFLTFDKQVLRFYAIWDDTDSMYGECRTYIIHYYLMDDTVEIREVHERNDGIDPFPLLMNRQRVPKVLVENAKNFPQCVLEISDQEVLEWYTAKDFIVGKSLTILGRTFFIYDCDPFTRRYYKEKFGITDLPRIDVSKREPPPVKQELPPYNGFGLVEDSAQNCFALIPKAPKKDVIKMLVNDNKVLRYLAVLESPIPEDKDRRFVFSYFLATDMISIFEPPVRNSGIIGGKYLGRTKVVKPYSTVDNPVYYGPSDFFIGAVIEVFGHRFIILDTDEYVLKYMESNAAQYSPEALASIQNHVRKREAPAPEAESKQTEKDPGVQELEALIDTIQKQLKDHSCKDNIREAFQIYDKEASGYVDRDMFFKICESLNVPVDDSLVKELLRMCSHGEGKINYYNFVRAFSN”, the “soluble on expression in E. coli” value is given as “soluble”.
With “MVSRHIPERLKKKIYQEANMTCPNCGERDVSTFEIHHIQPFVDVKKHEERNLILLCSNCHSKATVGELTEIEVLRLKVGLISSSSGQSKETMPSNVITLDSVKNHGVIANQVTLNNSPAKVVLLPAVGSIASSLKHQNYIKYLIDKYHAYKIVEVGKSNMKYPVFYNALKRKFGAKWDMVPIDRFLELSTYIQDRIEKTVLGKKLKAQGKKSYSTFEEYLAKNCSLEHHHHHH” the entry was “not soluble”; with “MVTKTTLASATSGLLLLAVVAMSGCTPRPQGPGPAAEKFFAALAIGDTASAAQLSDNPNEAREALNAAWAGLQAAHLDAQVLSAKYAEDTGTVAYRFSWHLPKDRIWTYDGQLKMARDEGRWHVRWTTSGLHPKLGEHQTFALRADPPRRASVNEVGGTDVLVPGYLYHYSLDAGQAGRELFGTAHAVVGALHPFDDTLNDPQLLAEQASSSTQPLDLVTLHADDSNRVAAAIGQLPGVVITPQAELLPTDKHFAPAVLNDVKKAVVDELDGKAGWRVVSVNQNGVDVSVLHEVAPSPASSVSITLDRVVQNAAQHAVNTRGGKAMIVVIKPSTGEILAIAQNAGADADGPVATTGLYPPGSTFKMITAGAAVERDLATPETLLGCPGEIDIGHRTIPNYGGFDLGVVPMSRAFASSCNTTFAELSSRLPPRGLTQAARRYGIGLDYQVDGITTVTGSVPPTVDLAERTEDGFGQGKVLASPFGMALVAATVAAGKTPVPQLIAGRPTAVEGDATPISQKMIDALRPMMRLVVTNGTAKEIAGCGEVFGKTGEAEFPGGSHSWFAGYRGDLAFASLIVGGGSSEYAVRMTKVMFESLPPGYLA”, “not soluble”; with “MVVTRIAPSPTGDPHVGTAYIALFNYAWARRNGGRFIVRIEDTDRARYVPGAEERILAALKWLGLSYDEGPDVAAPTGPYRQSERLPLYQKYAEELLKRGWAYRAFETPEELEQIRKEKGGYDGRARNIPPEEAEERARRGEPHVIRLKVPRPGTTEVKDELRGVVVYDNQEIPDVVLLKSDGYPTYHLANVVDDHLMGVTDVIRAEEWLVSTPIHVLLYRAFGWEAPRFYHMPLLRNPDKTKISKRKSHTSLDWYKAEGFLPEALRNYLCLMGFSMPDGREIFTLEEFIQAFTWERVSLGGPVFDLEKLRWMNGKYIREVLSLEEVAERVKPFLREAGLSWESEAYLRRAVELMRPRFDTLKEFPEKARYLFTEDYPVSEKAQRKLEEGLPLLKELYPRLRAQEEWTEAALEALLRGFAAEKGVKLGQVAQPLRAALTGSLETPGLFEILALLGKERALRRLERALA”, “soluble”.
With “MVWFFEYYDGCGLAIKVKKKLYEAEGVQKVEIYETESMGKMLVIDGKIQLTELDEPFYHEMLVHVPMLSHENPRKVAVIGGGDGGALREVLKHNVERAVLVDIDRNVIDLSRKFLKIDHGAFEDERVEIAIMDGKEFLRDCEIFDVIIVDSTDPVGVSDTLFDREFFELARQKCDVISLQSQSPLIQKEYFRTLLVNSAPFERRDVYLSCVPTYPLALWSFIIGGEYDFSNLEERFERIKGKTVHYNPDVHRAAFALPEWLKKEVEACILEHHHHHH”, the “soluble on expression in E. coli” value is given as “soluble”.
The result for “MVYLLDLSGVYCEPVEPRLLRLLAEESGEPVFYLSEAFYALLPRLKAEGAQALEALFPGASRLYPKAFRPRGLAFPEPFHLVSDLPPPEGVLAYHAPDKLEALALALEALGLAPGEAVYWDDNPLWVERARGLGVRAELFLP” reads “soluble”.
With “MWIEIICGLVIYKLVRRFFYDDEFSDVETSDSTALFSVAHRLEKLYGGKAYVGLRIPDADTASRQDIDVVLVTKGDVVVISVKNLSGIVTVTSDGSWVCEGGKHHTTETFPDPLAEVKKQASVLESYLEQRGVTLLEGNVSCKVVIPNPSFRTIHAFPSEVITYEDWQQLKPVSKSKISGWVKGAFSTGKEMQESSHQKLNFILGTAPTWDRVELKSSKIVLGEFLEFKGKQEDTLALRNIKRSKVDRVSIQKTSMFGL” the entry was “not soluble”; with “MWIPSKLTRPGRLHNAIVRPRVLDLLQQAPYYKLVLFRSPAGYGKTTMAAQWLSDKPNVGWYSIDDSDNDGFRFVNYLLQALNKATNFSCSNAQKLAEKRQISSLRSLFSEVFAEMADFHQECYVVLDDYHLITNDEIHESMRFFLKHMPDNLTVVVTSRAAPPLGTANLRVRDLMIEIGNEMLAFDTEETTRFFNQRIADGIDEDMANSLRTYVEGWPSAMQLIALQAQHQNRTLAQTVESVSQFNHAHLWDYLVEEVFDLLDHETRHFLMQVSVLDHFNDELVFALTQREDALGLIESLNRYGLFIYPLEGEHNWFRFHNLFGEFLSHERQARIPQQEKDLHRNAAVAWLQQKSPHQAIHHAQKSNDKDLVVEILNEFGWKMFNQGELSTLEHAINKLDAELLFSHPKLTMLRAWLAQSQHRYNQVGQLLEEAEEEHKKRNIELDIHYQGQA”, “not soluble”.
The result for “MWKMLSSEYSILLIDDDADVLDAYTQLLEQSGYRVFACNNPFEAQAWIQPDWPGIVLSDVCMPGCSGIDLMMLFHQDDQQLPILLITGHGDVPMAVDAVKKGAWDFLQKPVDPGKLLSLVEEALRQRQSIIARRQYCQQTLQVELIGRSEWINQYRRRLQQLSETDIAVWLYGAPGTGRMTGARYLHQFGRNAQGEFVYRELTPDNAPQLNDFIALAQGGTLVLSHPEHLTREQQYHLVQLQSQEHRPFRLIGIGDTSLVELAASNHIIAELYYCFAMTQIACLPLTQRPDDIEPLFRHYLCKACQRLNHPVPEVGKEMLKEMMRRMWPNNVRELANAAELFTVGVLPLAETANPLMHVGTPTPLDRRVEDAERQIITEALNIHQGRINEVAEYLQIPRKKLYLRMKKYGLSKEHYKI” reads “not soluble”; that for “MWLIILWNAKPDTPLFNFKDEVIKYKTYEPFESSIKRVNTTIKNGSKGKTLTEMINGYRADNDIRDEICNFNILKNKIRDMKNQQGNTMESYF”, “not soluble”.
“MWRCIVVISSDRRPEMPFKPLVTAGIESLLNTFLYRSPALKTARSRLLGKVLRVEVKGFSTSLILVFSERQVDVLGEWAGDADCTVIAYASVLPKLRDRQQLAALIRSGELEVQGDIQVVQNFVALADLAEFDPAELLAPYTGDIAAEGISKALRGGAKFLHHGIKRQQCYVAEAITEEWRMAPGPLEVAWFAEETAAVERAVDALTKRLEKLEAK”: the “soluble on expression in E. coli” value is given as “not soluble”.
With “MWRSCLRLRDGGRRLLNRPAGGPSASMSPGPTIPSPARAYAPPTERKRFYQNVSITQGEGGFEINLDHRKLKTPQAKLFTVPSEALAIAVATEWDSQQDTIKYYTMHLTTLCNTSLDNPTQRNKDQLIRAAVKFLDTDTICYRVEEPETLVELQRNEWDPIIEWAEKRYGVEISSSTSIMGPSIPAKTREVLVSHLASYNTWALQGIEFVAAQLKSMVLTLGLIDLRLTVEQAVLLSRLEEEYQIQKWGNIEWAHDYELQELRARTAAGTLFIHLCSESTTVKHKLLKE” the entry was “not soluble”; with “MWSEKHKSGKVNFVERYKHPYTGKWCRASVLMEKDTPRIRKEAQKYLDEKISEILTSLTTTDAYLLDVMNEWWEHHQKSLKSTSVRSLDFRIRELRNLIDPEVMIAKITTKYLQSIIDKIPGSYDKRKRARQLLKQTFDYAIALEYVSINPVISTQLAKPVKTIKDFEDVAQKFLEKDELKRLLDEMYRRKGSIKMAYLAEFMSLNGCRIGEALAIQPDNIKNDIIEIHGTLDYTSNGYRNAIKTTPKTNSSWRETLITKREKEIIQDILKINALEKNTNPNYKDMGYIFISRNGVPIQDNALNTSIRAANKRLEKPIQKELTSHIFRHTLVSRLAENKVPLKTIMDRVGHADSKTTQQIYTHVTKSMKNEVVDILNRL”, “not soluble”; with “MWTATACSIDSSPSMWNCAEVMDSTRSELLQSTPEAEDGNIEYKLKLVNPSQYRFEHLVTQMKWRLQEGRGEAVYQIGVEDNGLLVGLAEEEMRASLKTLHRMAEKVGADITVLREREVDYDSDVPRKITEVLVRKVPDNQQFLDLRVAVLGNVDSGKSTLLGVLTQGELDNGRGRARLNLFRHLHEIQSGRTSSISFEILGFNSKGEVVNYSDSRTAEEICESSSKMITFIDLAGHHKYLHTTIFGLTSYCPDCALLLVSANTGIAGTTREHLGLALALKVPFFIVVSKVDLCAKTTVERTVRQLERVLKQPGCHKVPMLVTSEDDAVTAAQQFAQSPNVTPIFTLSSVSGESLDLLKVFLNILPPLTNSKEQEELMQQLTEFQVDEIYTVPEVGTVVGGTLSSGICREGDQLVVGPTDDGCFLELRVCSIQRNRSACRVLRAGQAATLALGDFDRALLRKGMVMVSPEMNPTICSVFEAEIVLLFHATTFRRGFQVTVHVGNVRQTAVVEKIHAKDKLRTGEKAVVRFRFLKHPEYLKVGAKLLFREGVTKGIGHVTDVQAITAGEAQATMGF”, “soluble”.
As to “MYALAFDLKIEILKKEYGEPYNKAYDDLRQELELLGFEWTQGSVYVNYSKENTLAQVYKAINKLSQIEWFKKSVRDIRAFKVEDFSDFTEIVKS”, the “soluble on expression in E. coli” value is on record as “not soluble”.
Take “MYDKILKMLTDTIKQFSDAPIYLDNVMQSSEPFYFVLSVEESMTDNVGQNVQNKAYNVDIALVDSKKDKQLVKSLTESCGAFFNVLNLDGNELFPEDYQTFKTDGIQHINFNVAFPQLIEWSEK”: the “soluble on expression in E. coli” value was “not soluble”.
The result for “MYFKMITSAPWVLYPEIGEDPSKKWIFREPKISDGDGIYSLIADCPPLDMNSSYCNFLQSTHFSKTSILVEHKGDIAGFISGYQKPDEQDVLFIWQVAVSPRFRGNGLAFRMLKELLEREALSEVKSVETTITEDNQASWALFKKLDAMNGNHGQVSTFLDEKAHFKGKHDTEFLYRIPLK” reads “not soluble”.
The result for “MYGEWGMGNILMMFHVYLVQGFRSEHGPVKDFSFERSSRSMLERSEQQIRAASSLEELLQIAHSEDWKLWRCRLKLKSLASMDSRSASHRSTRFAATFYDL” reads “not soluble”.
For the sequence “MYINVVKCMWKQIKHRFEGYPSRMYVARKIIDLGFRIDRNGKIYCDDVEISDVALARAVGVDRRTVRATANTILEDEKLRGIFENMMPAGALLRDAAGELDFGVVEIEADARNPGILAAAARLIADKGISIRQAHAGDPELDETPRLTIITETPIPGGLLKDFLKIDGVKRVSIY”, the “soluble on expression in E. coli” value is on record as “soluble”.
With “MYKAIIMPVDVFEMELSDKAVRHAEFLAQDDGVIHLLHVLPGSASLSLHRFAADVRRFEEHLQHEAEERLQTMVSHFTIDPSRIKQHVRFGSVRDEVNELAEELGADVVVIGSRNPSISTHLLGSNASSVIRHANLPVLVVR” the entry was “not soluble”.
The result for “MYKFVLIASLLVALCMAAPPRQESEAERIEREEYEKYQNENAQYSFNSSVDDKINDGQISRNEEREGGTVRGSYSYFDGFVKRRVEYIADKDGYRVLKDEIEDVGNGPSFNPDGIANVEGSMIGKYSIKLDKADDDKHYKDIHALEHHHHHH” reads “not soluble”.
